Literature values in patent US7713705B2, “Markers for differential diagnosis and methods of use thereof” (Biosite, Inc., priority 2002, dated 2010).
Where two headings read alike, the source gives them in different places.

How the values were obtained:
[1] = plasma, in mice
[2] = bloodstream of rats
[3] = in animals

C-reactive protein [CRP]
half-life (bloodstream): approximately 19 hours

CK-BB: brain-specific creatine kinase isoform, an 85 kDa cytosolic protein
half-life (in vivo): 60 to 300 min

Interleukin-1β [IL-1β]
biphasic physiological half-life, first phase (in vivo): 5 minutes | biphasic physiological half-life, second phase (in vivo): 4 hours

Interleukin-6 [IL-6]
half-life (bloodstream): 252 min

Malondialdehyde-modified low-density lipoprotein [MDA-modified LDL]
half-life [1]: less than 5 minutes

Phosphoglyceric acid mutase [PGAM]
half-life [2]: less than 2 hours

Platelet factor 4 [PF4]
biphasic half-life, first phase (plasma): 1 min | extended half-life, second phase (plasma): 20 min | half-life extended by the presence of heparin (plasma): 20 to 40 min | biphasic half-life, first phase (serum): 1 min | extended half-life, second phase (serum): 20 min | half-life extended by the presence of heparin (serum): 20 to 40 min

Platelet-derived growth factor [PDGF]
biphasic half-life, first phase [3]: approximately 5 minutes | biphasic half-life, second phase [3]: ~60 min

Prothrombin fragment 1+2 [F1+2]
half-life (plasma): approximately 90 minutes

S-100β: β subunit of S-100, a 21 kDa cytosolic Ca2+-binding protein; specific to the nervous system
biological half-life (in vivo): 2 hours

Tumor necrosis factor α [TNFα]
half-life (bloodstream): approximately 1 hours

thrombin-ATIII complex [TAT]
half-life (bloodstream): approximately 5 minutes

B1: neuron-specific enolase (protein, UniProt P09104 2-434, looked up)
Gamma-enolase: SIEKIWAREILDSRGNPTVEVDLYTAKGLFRAAVPSGASTGIYEALELRDGDKQRYLGKGVLKAVDHINSTIAPALISSGLSVVEQEKLDNLMLELDGTENKSKFGANAILGVSLAVCKAGAAERELPLYRHIAQLAGNSDLILPVPAFNVINGGSHAGNKLAMQEFMILPVGAESFRDAMRLGAEVYHTLKGVIKDKYGKDATNVGDEGGFAPNILENSEALELVKEAIDKAGYTEKIVIGMDVAASEFYRDGKYDLDFKSPTDPSRYITGDQLGALYQDFVRDYPVVSIEDPFDQDDWAAWSKFTANVGIQIVGDDLTVTNPKRIERAVEEKACNCLLLKVNQIGSVTEAIQACKLAQENGWGVMVSHRSGETEDTFIADLVVGLCTGQIKTGAPCRSERLAKYNQLMRIEEELGDEARFAGHNFRNPSVL
biological half-life (in vivo): 48 hours

B2: β-thromboglobulin (protein, UniProt P02775 48-128, looked up)
Beta-thromboglobulin: GKEESLDSDLYAELRCMCIKTTSGIHPKNIQSLEVIGKGTHCNQVEVIATLKDGRKICLDPDAPRIKKIVQKKLAGDESAD
modifications: Beta-thromboglobulin
biphasic half-life, first phase (plasma): 10 min | extended half-life, second phase (plasma): 60 min | biphasic half-life, first phase (serum): 10 min | extended half-life, second phase (serum): 60 min
